Our source for the EC50 values is the supplement of paper PMC6379048.

What all share (test): EC50 of free RNA motif oligo competing protein binding to immobilised probe
One series addresses GPATCH11 (UniProt Q8N954). The procedure, abridged: (§1)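 Free RNA oligos (0 nM to 30 μM) competed for 1 h at 4°C in HEK293-FT lysate (2.5 mg protein/well) before a 30 min, 4°C pulldown with the same oligos on NHS-Sepharose beads. Bound proteins were quantified by label-free LC-MS/MS and normalised to the control. Kd was found by multiplying EC50, from a four-parameter log-logistic fit, by a protein-dependent depletion factor.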

Another series has as its target T1, DHX30 (UniProt Q7L2E3).
T1 sequence: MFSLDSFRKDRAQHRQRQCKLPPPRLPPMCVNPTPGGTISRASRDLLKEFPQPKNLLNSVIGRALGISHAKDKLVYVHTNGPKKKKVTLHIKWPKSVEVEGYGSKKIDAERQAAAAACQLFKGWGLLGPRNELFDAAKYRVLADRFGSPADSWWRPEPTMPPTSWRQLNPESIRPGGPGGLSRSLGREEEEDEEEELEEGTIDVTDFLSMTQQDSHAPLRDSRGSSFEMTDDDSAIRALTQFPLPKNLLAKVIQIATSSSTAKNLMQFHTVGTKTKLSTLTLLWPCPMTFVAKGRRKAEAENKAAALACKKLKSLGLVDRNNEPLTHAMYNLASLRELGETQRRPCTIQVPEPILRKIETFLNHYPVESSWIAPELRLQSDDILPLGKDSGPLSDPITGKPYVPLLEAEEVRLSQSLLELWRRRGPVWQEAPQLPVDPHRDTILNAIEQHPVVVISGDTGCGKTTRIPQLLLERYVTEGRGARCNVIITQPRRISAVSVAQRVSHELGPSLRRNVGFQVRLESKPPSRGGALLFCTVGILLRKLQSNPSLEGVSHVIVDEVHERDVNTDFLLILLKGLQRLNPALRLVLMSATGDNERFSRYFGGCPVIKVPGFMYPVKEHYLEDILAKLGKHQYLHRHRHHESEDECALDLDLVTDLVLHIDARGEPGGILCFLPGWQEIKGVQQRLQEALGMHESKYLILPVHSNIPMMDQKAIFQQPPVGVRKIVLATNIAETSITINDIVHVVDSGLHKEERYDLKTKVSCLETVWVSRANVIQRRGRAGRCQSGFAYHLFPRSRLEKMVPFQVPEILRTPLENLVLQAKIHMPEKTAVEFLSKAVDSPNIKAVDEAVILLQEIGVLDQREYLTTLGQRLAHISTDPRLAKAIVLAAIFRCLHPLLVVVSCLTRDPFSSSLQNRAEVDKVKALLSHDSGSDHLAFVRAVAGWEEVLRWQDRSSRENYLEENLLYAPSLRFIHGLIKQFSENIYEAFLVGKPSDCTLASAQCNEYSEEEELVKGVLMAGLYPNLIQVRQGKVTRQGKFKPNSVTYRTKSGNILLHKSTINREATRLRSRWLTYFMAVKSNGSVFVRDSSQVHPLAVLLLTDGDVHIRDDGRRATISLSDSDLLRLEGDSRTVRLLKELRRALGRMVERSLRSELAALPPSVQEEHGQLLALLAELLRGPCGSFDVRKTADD
The method in brief: as §1

The target in a further series is RPS19 (UniProt P39019). The procedure, abridged: as §1
In the next series the target is RPS3 (UniProt P23396). The method in brief:
as §1

Another series has as its target MRPL37 (UniProt Q9BZE1). The method in brief: as §1
For another series, the target named is MRPL12 (UniProt P52815). The procedure, abridged:
as §1

The target in another series is PCBP1 (UniProt Q15365). The method in brief:
as §1

Another series has as its target ATIC (UniProt P31939). The method in brief:
as §1

The target of the next series is TTC37 (UniProt Q6PGP7). The procedure, abridged:
as §1

Another series concerns the target ZCCHC11 (UniProt Q5TAX3). The procedure, abridged: as §1
For another series, the target named is T2, ZFP36L1 (UniProt Q07352).
T2 sequence: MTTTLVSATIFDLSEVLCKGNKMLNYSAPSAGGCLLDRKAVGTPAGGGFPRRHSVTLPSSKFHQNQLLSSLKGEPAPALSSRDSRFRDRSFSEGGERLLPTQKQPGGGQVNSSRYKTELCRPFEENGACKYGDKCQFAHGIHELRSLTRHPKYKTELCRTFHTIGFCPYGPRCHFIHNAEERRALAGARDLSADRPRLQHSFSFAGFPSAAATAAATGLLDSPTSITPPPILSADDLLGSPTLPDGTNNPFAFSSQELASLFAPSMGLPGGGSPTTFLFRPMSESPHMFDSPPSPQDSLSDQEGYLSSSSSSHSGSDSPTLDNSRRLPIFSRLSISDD
The method in brief: as §1

The target in a further series is MRPS26 (UniProt Q9BYN8). The procedure, abridged:
as §1

By EC50 is commonly meant the concentration giving half of the maximal effect. High values mean weaker potency, low ones greater potency.

Sequence of PCBP1 (Q15365 whole entry): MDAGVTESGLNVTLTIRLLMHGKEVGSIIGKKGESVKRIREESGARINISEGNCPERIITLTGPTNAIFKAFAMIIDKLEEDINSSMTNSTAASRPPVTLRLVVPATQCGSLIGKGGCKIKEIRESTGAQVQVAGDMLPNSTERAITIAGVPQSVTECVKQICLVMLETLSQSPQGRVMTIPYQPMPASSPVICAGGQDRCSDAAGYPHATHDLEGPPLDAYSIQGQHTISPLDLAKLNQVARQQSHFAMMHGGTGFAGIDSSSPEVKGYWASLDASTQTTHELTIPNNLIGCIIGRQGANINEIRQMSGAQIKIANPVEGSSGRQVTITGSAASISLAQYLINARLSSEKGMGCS
Sequence of GPATCH11 (Q8N954 whole entry): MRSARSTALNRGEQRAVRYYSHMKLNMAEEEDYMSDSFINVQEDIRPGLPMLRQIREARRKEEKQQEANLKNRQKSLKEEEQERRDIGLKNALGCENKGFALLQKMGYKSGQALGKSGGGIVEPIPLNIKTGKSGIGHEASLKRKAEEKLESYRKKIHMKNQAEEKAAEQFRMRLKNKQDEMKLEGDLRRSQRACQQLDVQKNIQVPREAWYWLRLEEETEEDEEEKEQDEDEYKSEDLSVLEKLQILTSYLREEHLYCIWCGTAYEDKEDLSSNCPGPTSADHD
Sequence of TTC37 (Q6PGP7 whole entry): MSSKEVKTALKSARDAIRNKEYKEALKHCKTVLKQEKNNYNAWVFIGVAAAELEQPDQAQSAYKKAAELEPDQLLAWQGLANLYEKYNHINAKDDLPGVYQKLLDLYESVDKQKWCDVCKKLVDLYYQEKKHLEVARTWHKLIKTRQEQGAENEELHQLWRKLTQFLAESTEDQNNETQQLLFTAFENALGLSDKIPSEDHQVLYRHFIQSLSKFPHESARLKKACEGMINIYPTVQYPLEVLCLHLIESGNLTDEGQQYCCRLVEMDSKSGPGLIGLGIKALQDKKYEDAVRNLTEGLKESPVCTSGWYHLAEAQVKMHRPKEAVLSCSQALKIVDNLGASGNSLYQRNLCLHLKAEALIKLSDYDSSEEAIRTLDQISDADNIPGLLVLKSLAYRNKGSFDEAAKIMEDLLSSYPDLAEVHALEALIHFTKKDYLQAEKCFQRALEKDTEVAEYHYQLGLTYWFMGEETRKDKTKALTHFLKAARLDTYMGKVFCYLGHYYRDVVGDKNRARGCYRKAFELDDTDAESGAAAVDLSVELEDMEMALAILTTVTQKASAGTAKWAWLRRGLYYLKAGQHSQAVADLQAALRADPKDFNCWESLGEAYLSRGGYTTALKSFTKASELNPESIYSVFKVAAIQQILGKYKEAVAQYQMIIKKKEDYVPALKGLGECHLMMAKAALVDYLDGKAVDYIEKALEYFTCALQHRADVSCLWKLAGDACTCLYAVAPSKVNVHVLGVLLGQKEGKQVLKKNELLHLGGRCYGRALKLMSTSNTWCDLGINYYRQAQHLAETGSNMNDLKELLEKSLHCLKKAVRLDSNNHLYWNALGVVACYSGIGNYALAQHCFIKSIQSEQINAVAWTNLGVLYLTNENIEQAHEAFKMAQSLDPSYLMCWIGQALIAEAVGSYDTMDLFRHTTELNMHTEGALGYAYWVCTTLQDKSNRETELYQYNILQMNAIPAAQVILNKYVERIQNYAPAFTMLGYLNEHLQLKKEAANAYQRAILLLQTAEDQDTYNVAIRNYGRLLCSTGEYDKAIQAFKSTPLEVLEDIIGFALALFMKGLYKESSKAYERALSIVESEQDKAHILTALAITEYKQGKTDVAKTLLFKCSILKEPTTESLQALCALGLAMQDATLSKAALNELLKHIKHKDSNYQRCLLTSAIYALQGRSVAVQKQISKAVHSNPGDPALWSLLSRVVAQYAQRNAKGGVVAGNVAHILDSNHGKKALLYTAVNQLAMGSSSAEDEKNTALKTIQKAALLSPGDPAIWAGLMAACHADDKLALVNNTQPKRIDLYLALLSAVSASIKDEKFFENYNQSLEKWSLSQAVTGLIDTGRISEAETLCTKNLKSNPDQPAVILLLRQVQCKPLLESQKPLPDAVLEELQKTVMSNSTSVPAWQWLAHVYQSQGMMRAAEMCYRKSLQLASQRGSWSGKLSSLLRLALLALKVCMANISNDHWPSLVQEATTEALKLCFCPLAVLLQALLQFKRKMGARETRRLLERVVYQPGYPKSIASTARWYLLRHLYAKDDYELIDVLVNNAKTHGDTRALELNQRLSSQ
Sequence of ZCCHC11 (Q5TAX3 whole entry): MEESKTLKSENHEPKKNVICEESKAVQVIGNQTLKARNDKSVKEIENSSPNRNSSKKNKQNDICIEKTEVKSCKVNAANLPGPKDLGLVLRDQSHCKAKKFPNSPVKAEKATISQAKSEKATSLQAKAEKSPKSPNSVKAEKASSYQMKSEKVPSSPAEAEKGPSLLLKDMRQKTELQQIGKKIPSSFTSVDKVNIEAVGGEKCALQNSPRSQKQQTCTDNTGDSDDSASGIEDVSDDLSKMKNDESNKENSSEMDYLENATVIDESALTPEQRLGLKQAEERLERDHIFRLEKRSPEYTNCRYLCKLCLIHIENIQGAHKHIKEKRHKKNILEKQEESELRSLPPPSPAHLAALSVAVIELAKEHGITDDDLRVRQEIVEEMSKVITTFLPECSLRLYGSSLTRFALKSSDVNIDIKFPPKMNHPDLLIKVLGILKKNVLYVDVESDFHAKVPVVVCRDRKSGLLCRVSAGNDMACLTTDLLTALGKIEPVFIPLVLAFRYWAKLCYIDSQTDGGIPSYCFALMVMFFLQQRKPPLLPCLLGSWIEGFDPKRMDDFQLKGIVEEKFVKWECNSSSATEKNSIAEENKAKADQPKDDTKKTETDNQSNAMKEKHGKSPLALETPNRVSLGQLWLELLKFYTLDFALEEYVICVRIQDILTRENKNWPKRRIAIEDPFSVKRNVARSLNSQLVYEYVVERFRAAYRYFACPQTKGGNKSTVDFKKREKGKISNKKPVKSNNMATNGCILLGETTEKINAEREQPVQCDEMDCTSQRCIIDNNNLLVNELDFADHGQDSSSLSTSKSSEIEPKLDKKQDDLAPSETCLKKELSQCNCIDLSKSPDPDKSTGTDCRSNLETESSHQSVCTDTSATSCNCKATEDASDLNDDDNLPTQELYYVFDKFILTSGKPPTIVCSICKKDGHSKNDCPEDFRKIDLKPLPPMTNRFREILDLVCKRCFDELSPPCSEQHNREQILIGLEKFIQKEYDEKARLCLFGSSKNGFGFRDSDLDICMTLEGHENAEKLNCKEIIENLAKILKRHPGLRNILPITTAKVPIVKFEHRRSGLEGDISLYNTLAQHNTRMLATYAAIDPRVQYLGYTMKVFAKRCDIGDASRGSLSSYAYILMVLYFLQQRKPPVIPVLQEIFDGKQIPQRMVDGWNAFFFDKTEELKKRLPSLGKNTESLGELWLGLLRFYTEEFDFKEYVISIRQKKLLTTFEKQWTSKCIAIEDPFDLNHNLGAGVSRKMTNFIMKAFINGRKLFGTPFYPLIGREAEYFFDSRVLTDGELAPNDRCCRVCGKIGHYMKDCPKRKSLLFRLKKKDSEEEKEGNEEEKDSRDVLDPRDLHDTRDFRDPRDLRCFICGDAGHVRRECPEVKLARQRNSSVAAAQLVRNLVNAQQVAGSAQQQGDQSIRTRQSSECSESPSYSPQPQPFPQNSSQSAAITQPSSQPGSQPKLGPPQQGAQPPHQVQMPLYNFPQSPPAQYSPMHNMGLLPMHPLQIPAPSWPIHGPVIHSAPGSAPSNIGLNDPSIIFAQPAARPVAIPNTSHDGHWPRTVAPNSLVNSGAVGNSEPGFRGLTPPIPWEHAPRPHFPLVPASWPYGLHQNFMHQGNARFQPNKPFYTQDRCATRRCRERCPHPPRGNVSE
Sequence of ATIC (P31939 whole entry, looked up): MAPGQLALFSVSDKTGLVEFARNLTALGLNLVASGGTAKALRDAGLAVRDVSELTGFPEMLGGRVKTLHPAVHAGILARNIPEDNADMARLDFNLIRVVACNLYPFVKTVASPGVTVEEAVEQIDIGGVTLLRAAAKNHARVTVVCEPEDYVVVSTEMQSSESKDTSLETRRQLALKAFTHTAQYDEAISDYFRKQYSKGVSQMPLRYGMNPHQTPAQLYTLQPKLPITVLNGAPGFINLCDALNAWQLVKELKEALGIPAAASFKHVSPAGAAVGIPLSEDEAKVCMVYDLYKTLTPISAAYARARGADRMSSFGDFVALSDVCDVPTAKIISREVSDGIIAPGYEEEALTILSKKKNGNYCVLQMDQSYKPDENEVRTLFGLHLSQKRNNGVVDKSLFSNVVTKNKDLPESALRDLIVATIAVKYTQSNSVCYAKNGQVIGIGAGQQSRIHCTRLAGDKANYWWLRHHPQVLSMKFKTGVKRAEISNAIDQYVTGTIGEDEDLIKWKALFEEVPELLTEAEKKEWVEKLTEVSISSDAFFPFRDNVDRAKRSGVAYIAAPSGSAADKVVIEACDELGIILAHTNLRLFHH

As for AAUAAA, the concentration for a half-maximal effect (EC50) with GPATCH11 was found to be 122 nM.

Consider CUGUCCU, for which the 50% effective concentration (EC50) in the series with DHX30 was 113 nM; with RPS19 it was 176 nM; in the series with RPS3 it was 307 nM; with MRPL37, 245 nM; with MRPL12, 115 nM; in the series with PCBP1, 3360 nM.

UAUUUAU: the EC50 with ATIC stood at 804 nM; with TTC37 it was 947 nM; with ZCCHC11 it was 108 nM; with ZFP36L1, 73.9 nM; with MRPS26, 35.1 nM.
